The RNAGym collection of RNA variant scans (doi:10.7554/elife.90254)

B1: OR4K15 (parent)
chain: GUUAACGGUCAUAGGCCAUGGAAACUAGGAGCACCAUUUCGCUGCCAGUGAAGAAAUGAACAAAGAAAAUCUGGGCCAGGCAGGCAUCAAAAGAAAUAGUCUUGCGCUCAACCAGAAAGUCUGUAAUCAUUUUAAGGGUA
B2: LINE1-full (parent)
chain: UACGUAGGUGGUUUUCCCCUGAUAGUGCUAAGGGGGCCUGGAAGUUUGGACUGGGCAGAGCUCAACACAGCGUGGCAAAGUGGCUGUGGCUAGACUGCCUCUCUGGAUUCCUCGUCACUCAGCAGGGCAUCUCUGAGAGAAAUGCC

Variants of: B1
Test: self-cleavage, relative activity (ratio to wild type); higher = more cleavage; in vitro, sequencing; the parent is a self-cleaving ribozyme

Variant | self-cleavage
G1A A134G | 1.75
U2C A114C | 0.03
U2A A22U | 0.88
U2C A125G | 0.55
G1A A62C | 2.59
U2C A110G | 0.11
G1A U108C | 0.05
U2A A52G | 0.8
G1A A33G | 0.78
U2A U49C | 1.68
U2A A125U | 2.08
G1U C105A | 0.03
U2C A68G | 1.13
U2C A95G | 1.53
U2C A95U | 0.99
U2C A116U | 0
G1U U39A | 1.74
U2A A129G | 0.66
U2C A30G | 1.22
U2A U132C | 1.21
G1A G137A | 0.95
U2A A96G | 1.05
U2C A96G | 1.1
U2C A51U | 0.82

Variant | self-cleavage
U2C A51G | 0.84
U2C A24G | 1.09
G1A A111G | 0.21
U2C A5G | 0.24
U2C A135U | 0.5
U2A A114G | 0.67
G1U A36G | 1.26
U2A A118G | 0.95
U2C A60U | 1.67
U2A U108C | 0.04
U2A C45A | 1.82
G1U A114G | 0.33
G1U A33U | 1.75
G1U A33G | 0.79
U2C A64U | 1.3
G1A A18C | 1.98
G1A A18G | 1.58
G1A A4G | 0.54
U2A A36U | 1.18
U2A U127C | 1.08
U2A G14C | 0.7
G1A U122C | 0.48
U2C A129G | 0.75
U2C A129U | 0.84

Variant | self-cleavage
U2A U102A | 1.51
U2C A86G | 0.95
U2C A86U | 2.13
U2C A13G | 0.99
U2A C61U | 0.71
U2A A23C | 0.29
U2A A5G | 1.24
U2C A67U | 0.85
U2C A67G | 1.13
G1A C40U | 1.78
U2A A78C | 0.66
U2A A78G | 0.46
U2C A82G | 0.55
U2C A82U | 0.17
U2A | 0.8
U2C | 0.88
G1U U87C | 0.27
G1A A95G | 2.4
U2C A98G | 0.57
G1A U72C | 0.39
U2C A89G | 0.63
U2C A89U | 1.7
U2A U100C | 0.89
U2A A18G | 0.91

Variant | self-cleavage
G1A A90G | 0.26
U2C A66C | 0.66
G1A G138A | 2.03
U2C A111U | 0.27
U2C A78C | 0.4
U2C A78U | 0.09
U2A U3A | 1.16
U2A G106A | 0.06
G1A U49C | 1.35
U2A G104A | 0.16
U2C A69U | 1.15
U2A U43G | 1.11
U2C C10U | 1.04
U2C C25U | 1.85
U2C A22U | 1.51
U2C A22G | 1.11
U2C A33C | 0.88
U2C A140G | 0.72
G1A U132C | 0.94
U2A A24G | 0.54
U2A A24C | 0.96
G1A A92G | 1.66
G1U A24G | 1.6
U2C A55U | 1.46

Variant | self-cleavage
U2C A55G | 1.15
U2C A52U | 0.38
U2C A54U | 1.61
U2C A54G | 0.68
G1A A82G | 1.18
U2A A51U | 0.86
U2A A135U | 0.96
U2A A110G | 0.16
G1U A5G | 0.45
U2C A23G | 1.01
U2A U26C | 0.99
U2C A126U | 0.77
U2A U87A | 1.32
G1U U103C | 1.59
U2C A117G | 1.33
U2C C16U | 0.69
U2A A86G | 1.46
G1A U9G | 1.23
U2C A4G | 0.87
U2C A47U | 0.86
U2C A47G | 1.28
U2A C77U | 1.39
U2A A89U | 1.2
U2C A92G | 0.98

Variants of: B2
Test: as above

Variant | self-cleavage
C103A A142G | 1.41
A64G A77U | 0.23
U39C A65U | 0.12
G10A A124U | 2.3
U104A C118U | 0.84
A117G U143C | 1.45
G83A | 0.86
A24G U91C | 0.81
U9C A141U | 1.53
A22U A142U | 1.48
G58U U62C | 0
A67U U102C | 0.1
A64C G75U | 0.08
U102C G122A | 1.66
C76A U81C | 1.46
G10A A22G | 1.09
U9G G60A | 0.09
C90U U104C | 0.04
U20C A124G | 1.06
U12G U52C | 0.79
U1A G33U | 0.96
C56U A136U | 0.13
U91C U115A | 0.56
U62C G105A | 0.03

Variant | self-cleavage
U14C U23G | 0.93
U81C A92U | 0.95
U73C U85C | 0.08
U14C G83A | 1.07
U12C C103A | 1.01
A50G C123U | 0.43
A24G C123U | 0.71
G70A U100C | 0.29
U52C U134C | 1.01
U62C C133A | 0.06
U15C C113U | 1.71
U12C U14G | 0.59
A77G U85G | 0.2
U39A U134A | 0.9
U29A U73C | 1.63
A67G U115C | 0.55
U73A G135A | 1.66
U87A C98U | 0.05
G21U A42G | 0.8
U47A U81A | 1.11
U47G A129U | 0.53
C113U A129G | 1.34
U109G C145A | 0.34
G106A A124U | 1.54

Variant | self-cleavage
G4A U39A | 0.54
C120A U134C | 1.65
U15C U109A | 1.41
C51U A77G | 2.03
A121G | 1.56
A2G G53A | 0.74
U20A A64U | 0.36
C3U U9A | 0.84
U47C C56U | 0.42
U23C U96C | 0.21
U45A U115G | 1.17
A31U C146U | 0.94
U13C C66U | 0.14
G7A A141G | 0.69
A64C A94G | 0.14
U20G U85C | 0.18
G40A A136U | 1.04
A24G U39A | 0.77
A67G G137A | 0.64
G8A U104A | 1.25
U85A G105A | 0.04
G49U A140U | 0.8
U23C A31G | 0.85
A107G G139A | 1.19

Variant | self-cleavage
U102A A141G | 1.42
G53U A78G | 0.71
A59G U81G | 0.09
A79U A94G | 0.26
C16U A129U | 1.36
A43U C131A | 1.64
U100A U132C | 0.65
C3G U52A | 0.8
U13G A94G | 0.37
G41A U96C | 0.11
U52A U87A | 0.08
U9C G48C | 1.09
U13C U143A | 1.17
G114A A117U | 1.34
A59U A79C | 1.23
G7U A57G | 0.12
U132C A142U | 1.2
U15C A69U | 0.09
A31G C98A | 0
C98A U102C | 0.13
U1C A77C | 1.02
A2G U15G | 0.99
A31C A142G | 0.53
U45C A64U | 0.29

Variant | self-cleavage
G35A U109A | 1.59
U109C G126A | 1.83
G25C U104A | 1.91
U112A U115C | 1.3
C38A U96G | 0.1
A50G G105A | 0.43
A42G A129U | 1.75
C95G U104C | 0.02
U13C U62C | 0.09
G75A C123U | 0.69
G74A A94G | 0.15
U47G U112A | 0.94
A50G U87G | 0.11
U20A C68U | 0.35
U1C U130C | 1.04
C51A U62A | 0.02
G36A U109C | 0.75
U9G U62C | 0.16
A124U A140G | 1.5
A30U G48U | 0.71
A43G C90A | 0.07
U47C U81C | 1.51
U13C U73A | 1.39
U12G U109C | 1.57

Variant | self-cleavage
C37U C68A | 0.03
C37U U108A | 1.01
U104A U109A | 0.42
A31U U62C | 0.12
A79C U96C | 0.11
G137A A140G | 1.4
U62A A67G | 0.07
U26A U29A | 1.12
C38A G44U | 1.48
U112C A138U | 1.23
A141G | 1.1
C110U A140G | 1.41
A67U U108A | 0.16
U45C G89A | 0.01
U45C A77C | 1.15
U9A G35A | 1.09
U12A A59U | 0.56
U62C G93A | 0.06
C17U G72A | 1.05
G4U U100C | 1.73
A31G U109C | 0.79
U52C U132C | 1.75
U87C A140U | 0.22
G8A U81C | 1.25

Variant | self-cleavage
U1A G34C | 1.08
U26C A57U | 0.14
A78G A79G | 1.14
A30U U62C | 0.07
U47C G75C | 0.97
U20C A30U | 1.18
U12A U52C | 1.06
C90A U134A | 0.04
C56U U115C | 0.19
A78G | 1.23
G54U U100C | 0.22
U45C C99U | 1.07
U73A A117G | 1.4
U13C A94G | 0.33
G82A G105A | 1.95
C71U A77U | 0.7
G80A A117G | 2.22
U108C A141G | 1.65
U14C U134G | 1.23
U23A A43G | 1.27
U20A A59G | 0.15
U108G U115C | 1.58
C38U U104C | 1.71
U20C A78G | 1.52

Variant | self-cleavage
A59U A78U | 1.43
G54C U96C | 0.03
A78G U143C | 1.18
U46G A141G | 1.16
C3U U73C | 1.49
A65U G82U | 0.15
U47C U102A | 1.84
G33A U130C | 1.04
C98U U100G | 0.05
A64G G82A | 0.19
U14C U96A | 0.13
A121U G126A | 0.83
U20C G33C | 0.74
A50G A129U | 0.26
A59G G125C | 0.2
U12G A57G | 1.42
C19A U39A | 2.04
C61U U96C | 0.03
C19A U102C | 1.76
U15A U73A | 1.02
U1A C37G | 0.74
U14C C99A | 0.86
U12C A92G | 0.09
U13C A136G | 1.25

Variant | self-cleavage
C101A A129G | 0
U14A U73A | 1.39
U26C A136U | 1.82
U39C U100A | 0.53
U23C A124C | 1.34
U119A A136U | 1.3
U26C A64G | 0.39
U1C U39A | 0.75
G60A U96A | 0.03
C66U A124G | 0.03
A2G G54A | 0.27
U23C G106U | 1.04
U5C U13C | 0.87
U12G U115C | 1.47
U5C U62A | 0
U9G U45A | 0.73
A42G U73A | 1.52
U45A C71U | 0.08
U81A U143C | 1.95
G34A A50U | 0.38
G32A A59G | 0.02
U104C G105U | 1.66
